Measurements reported in the DeepSol protein solubility set.

Test: soluble on expression in E. coli; label from the status in PepcDB or PDB records

For “MAHHHHHHMGVPTMERSHGRRSPDEVRYPHIVLNVLGQSYSSACIEVGSTRVVCAVHHPQQLIDEYRGSRGRVACTVRRSSRAQKHELAFRADVTPEKDLALALEGVVEQAVVLEKIPQLLVEVAVEILAEDGGLWDAIATGVCAALASGGFEMYDTFSACGAALLPDGSIVTDPSATEWNTAKATAVTCAMLNSGNMCFTAQRGSCEPTTALDLVMAALKGTLARKNVISSQLCEQFAF”, which “soluble on expression in E. coli” value is on record?
Its value is “not soluble”.

With “MAHHHHHHMHFSLQKKNICTNSTKCVNVHPYLFPPLGMVPKRVRYDVHRGGEQHTDITNLLHTFKRFKMVKTSSYRRKSRSSPNGQGQKAKIGIKRLSAEYVKTGQLLVKQRKIIAFNLERKTRRRNFKYYPGEHVKVTKNTSLVALTNGRVKYTFHTTQNVLIVNVLPEEIDELREEDLYRYRTEHVRSLEENRSLVYLRMKHVVSFPPSKETQFRKPPLRPQFLARYDIEDNPTLREVPVLYHKPK” as the sequence, how does the “soluble on expression in E. coli” value read?
Its value is “not soluble”.

Which “soluble on expression in E. coli” value does the source give for “MAHHHHHHMHLDEEYGNRSSSVSCDSSDAASAHSSSSDSASSAGGRQQRQRGNGSGGTETASLLSLPTASHANHAGCSVCGSATSLASRVSLLSTLSQHSAASYLSFISVLRPSITAGSAAGGTGAGGSADGDGAAGAGQQMHESEDGNTNLPLILLEQLALGLHRFMEAYPAELLDRYGLRSVSWSSIARMFATVEKSLVNTTTTAGAAAGAAAAAAPRQANHFPNDQEPPQPLFNLAQDIRYNKGMGYECLGLLFAKVVAPLLDPASSRAIASTSWSPPQQHQLRRSTGEATGTEDDDGSGGGARSDGGGTQEEFFANAAAVAATVGRAVLTIDDDPATRASVEAALSRCLTAYETVAPQVVDMNLPTILRLAARTAATSAGSTTSLRASASPSSLSIVLVDFVRDITARLGRGNDLPHLVDALLQRGDFAANASATAAASAVVDGSGDKASTIRSLRAVFSLPPVRQAVMEAAGTSLDPESLLRRLSGVAAELEEDNKSSSSSSSAQDEKQVELSSTARSCRKHDDARVQRMLLALELMEALLAGVTPTCVSASAVLEHTTQLELLLSSSFMAAVEELKGVCGEALDDRRALMIQHMYTIRQCRAVTILCLQDLGTQQVHDYLRMLEDALWQLTSHVGNLVGSLTLAELQPLLRPHPARYGGSEVLAPSPSALEQLQVQLLPSSLILQRPVASARSDRRPGNSRRARRGAP” here?
The value was “not soluble”.

For “MAHHHHHHMHPFYTIRYPPSKGSNESQPILVTDTAIEPLFFCIVYSIEFQCPVQTTESRTANSRSSSFPFGGRASGSGGKREANELHVCPVENTSKLLGNVTYVSCLDHNPTLLASLQTAVDAARAIPIPEDEQKVPLQLCVRLLHKQTRWLWEESRPLVEWTFKIVKTRGLSYAAVPEASSGASARNTNVEFVHASGPAQIREVLQFILKHSYEAIDLNTFSDFKSGELVFEVFVDQAR”, which “soluble on expression in E. coli” value is on record?
The value was “soluble”.

With “MAHHHHHHMIGGQHTKERLSERLQDCQNQPKNRGYLPGTKLLTGGYSTRTLQGNWAEERMDAGYYDGEAVFPTHLARAWTTDYRTMTSNVSGSLTRPVFDQATLMDIVDHKHRSYPAHQPYLDQQRDEVMQERFKTTTRTSYINPEERKREAQLHIPPVIGRTPTAQARAVILRIQRQLLLSRHGESAFPGNILRQIRLTLQRNDTAGEGMLTVEEAEKGFEEAFLVVSRPECVALVRAFDLKEDGTISIAKIMEELRGELRDRRYSLVEKVYEMLKGFSPDGIVRLQRLAELVDVDSMNAVMNGKVTSSLAHDAFVEQWDLPIDSYISFENFLLYFMDASFEIESDQEFEVFMRNVWHLSGGNGKSMNTSCRRVRVVHRNGRMSTQEVKNDLCIKDSDPNLQERIIANLASWGIKDVARVEMLPRNL” as the sequence, how does the “soluble on expression in E. coli” value read?
Its value is “not soluble”.
